According to the supplement of paper PMC12042874:
± gives the uncertainty stated by the source.

Assay: amyloid nucleation score (Sup35N fusion, yeast selection) (log enrichment); library NNK3; higher = more nucleation; inactive = no reads after selection
Method in brief: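 The nucleation score is a DiMSum log enrichment of output over input reads, centred on the mode score of non-aggregating sequences. Sequences under 100 input reads were excluded, and reads came from Illumina sequencing of plasmid inserts. Psi-negative yeast expressing Sup35N fused to peptides of 20 random codons were induced with 100 μM copper sulfate for 24 hours and grown 7 days at 30°C on medium lacking adenine and uracil. Random libraries had three technical output replicates.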
Work on GQDEPDCVG yielded an amyloid nucleation score of 0.014 ± 0.52. In the case of GQDRYLLAAYK, the amyloid nucleation score is reported as “inactive”. Substance GQFCCVCARIKLCRYSFNCY has an amyloid nucleation score of 2.45 ± 0.082. For GQTILC, the amyloid nucleation score was “inactive”. In the case of GRCSQGSLGSAG, the amyloid nucleation score is reported as “inactive”. Substance GRDAVLI has an amyloid nucleation score of -0.785 ± 1.1. With GRDCICDLRMETIGDTFTGW the amyloid nucleation score was “inactive”. With GRDEQNHRFELVL the amyloid nucleation score was “inactive”. With GRDLLLRHTMSRGCQILLE the amyloid nucleation score was “inactive”. Work on GRGHGEGTRLASSTIVIMHV yielded an amyloid nucleation score of -0.395 ± 0.61. In the case of GRGVDWMKQWNVHRKVLSSL, the amyloid nucleation score is reported as “inactive”. With GRHKFRMVVIRAVRVSVLEN the amyloid nucleation score was “inactive”. With GRHSALRASFGL the amyloid nucleation score was “inactive”. In the case of GRILLYLNEFFSGRIISLHK, the amyloid nucleation score is reported as “inactive”. Work on GRKDLKYIQSGDMQFQSSKW yielded an amyloid nucleation score of 0.138 ± 1. In the case of GRKKWGLSQSCDKLPMGHTS, the amyloid nucleation score is reported as “inactive”. In the case of GRLCYNSTNYLRHAASCLSM, the amyloid nucleation score is reported as “inactive”. With GRMEGNRFIDRLLGLHTSSP the amyloid nucleation score was “inactive”. With GRRTARKIKAGPYLCWKDGT the amyloid nucleation score was “inactive”. For GRSMR, the amyloid nucleation score was “inactive”. In the case of GSAECGCFASVYMNSMIKTV, the amyloid nucleation score is reported as “inactive”. With GSCCNQG the amyloid nucleation score was “inactive”. For GSCSIGSINIAFASSSIVYG, the amyloid nucleation score was “inactive”. For GSFVVMF, the amyloid nucleation score was “inactive”. In the case of GSGLLE, the amyloid nucleation score is reported as “inactive”. For GSHNAMLSAISADAGAWQRE, the amyloid nucleation score was “inactive”. In the case of GSILWGVNMRFLNITAGCDY, the amyloid nucleation score is reported as “inactive”. For GSKCWPDLQMLIFEVVHHRA, the amyloid nucleation score was “inactive”. With GSMLTDIVCFKYKVWDPIIL the amyloid nucleation score was “inactive”. With GSMMSCWRLAESWVVSKPPG the amyloid nucleation score was “inactive”. For GSQRLLALWNY, the amyloid nucleation score was “inactive”. In the case of GSRKYRCVDIISFGEWAVLD, the amyloid nucleation score is reported as “inactive”. In the case of GSRLHRFPNVKLDALFIYRW, the amyloid nucleation score is reported as “inactive”. With GSRSARMGVVRRGRRCSECY the amyloid nucleation score was “inactive”. In the case of GSRVMMCPNT, the amyloid nucleation score is reported as “inactive”. For GSRYRWVTATTIMSCGYEQE, the amyloid nucleation score was “inactive”. Substance GSSVELVIQSS has an amyloid nucleation score of 0.415 ± 0.28. For GSVQAFCISKP, the amyloid nucleation score was “inactive”. For GSYWKHVWLRYTSHGLTPQW, the amyloid nucleation score was “inactive”. In the case of GTASRG, the amyloid nucleation score is reported as “inactive”. Substance GTDSGTRSDNV has an amyloid nucleation score of 0.328 ± 0.63. In the case of GTFLIFDKFKLS, the amyloid nucleation score is reported as “inactive”. With GTFNIDVEVMVYRAGLFKHV the amyloid nucleation score was “inactive”. Substance GTIHLFYVFLLS has an amyloid nucleation score of 0.205 ± 0.38. For GTIRQS, the amyloid nucleation score was “inactive”. For GTRMNGSGFVKRAL, the amyloid nucleation score was “inactive”. For GTSAH, the amyloid nucleation score was “inactive”. GTTSFVLVCVCWSG gave an amyloid nucleation score of -0.409 ± 0.95. With GVIIRFWYWQDYAASLEYTC the amyloid nucleation score was “inactive”. Work on GVMDDSDIL yielded an amyloid nucleation score of -0.492 ± 0.84. GVMMVMFARL gave an amyloid nucleation score of 1.73 ± 0.091. For GVPLQWSSHAWGFFCWKTPW, the amyloid nucleation score was “inactive”. With GVQAITGPLSVQDVYRWAKP the amyloid nucleation score was “inactive”. In the case of GVRQVMVSSFRGNHNQKDTS, the amyloid nucleation score is reported as “inactive”. For GVTLGQLR, the amyloid nucleation score was 1.42 ± 0.15. In the case of GVWKLVSRARNDSINLR, the amyloid nucleation score is reported as “inactive”. GWHNGDKSYIFVYIRFGPMG showed an amyloid nucleation score of 0.955 ± 0.16. In the case of GWIAYRGSDR, the amyloid nucleation score is reported as “inactive”. In the case of GWKAPLTLRRTLSALDFVLY, the amyloid nucleation score is reported as 0.371 ± 0.38. For GWLRAMKSIVNLF, the amyloid nucleation score was “inactive”. For GWMQGVLSELTTTLVMESAR, the amyloid nucleation score was “inactive”. Substance GWRSTYYECSGKSVFNAG has an amyloid nucleation score of -0.217 ± 0.8. Work on GWTGVVFPVVSINSYQFTLF yielded an amyloid nucleation score of 0.757 ± 0.33. With GWVIDRLYGDDMSSILEL the amyloid nucleation score was “inactive”. With GYAHLLMANLRWSSTRLA the amyloid nucleation score was “inactive”. With GYLFGVRVGCVYELAFDGCR the amyloid nucleation score was “inactive”. In the case of GYLQGIYYGFTSCRKTSNQD, the amyloid nucleation score is reported as “inactive”. In the case of GYPVWYVDLFSAKVRMQ, the amyloid nucleation score is reported as “inactive”. With GYQLRRMMQTMRMKYRISSR the amyloid nucleation score was “inactive”. With GYRSTCVRRFCECRCRDITA the amyloid nucleation score was “inactive”. With GYTIYGRVNPLVCPWVLVSE the amyloid nucleation score was “inactive”. Substance GYTNKLKWGHRITINAFVYR has an amyloid nucleation score of -0.267 ± 0.68. In the case of GYVPHVFFRILRLVRENMLE, the amyloid nucleation score is reported as “inactive”. With GYYYNSMNFRWFIKMVVMVR the amyloid nucleation score was “inactive”. In the case of HALNSCDEFGTVMELCSCGS, the amyloid nucleation score is reported as “inactive”. For HARFTDQKTTPIWCTSVFKK, the amyloid nucleation score was “inactive”. In the case of HAVLFSVDVSYYLVPALLFR, the amyloid nucleation score is reported as “inactive”. With HCNEYSGNVVSRG the amyloid nucleation score was “inactive”. With HCPVSIY the amyloid nucleation score was “inactive”. With HCRAYITEPCKTWLY the amyloid nucleation score was “inactive”. For HCSYEFNS, the amyloid nucleation score was -0.001 ± 0.4. For HDCCDLGFSVDV, the amyloid nucleation score was “inactive”. With HDCGYQITYGDNRIVYMCFV the amyloid nucleation score was “inactive”. For HDLNWNSMVRCRVNVSSVIV, the amyloid nucleation score was “inactive”. For HDYYFDTRDTIRVIL, the amyloid nucleation score was “inactive”. With HEELQKIMIFSCMCYLQVLT the amyloid nucleation score was “inactive”. For HELDSTTLCVFKPFPFHANL, the amyloid nucleation score was “inactive”. With HEWATWRDVLQVTTFFVLHM the amyloid nucleation score was “inactive”. In the case of HFCLEYTLNVTMHAWTL, the amyloid nucleation score is reported as “inactive”. With HFKFLYDS the amyloid nucleation score was “inactive”. With HFKVFT the amyloid nucleation score was “inactive”. For HFMMYMLQRVHELFILSKSM, the amyloid nucleation score was “inactive”. HFPSFFSIIPYRACNTACSA gave an amyloid nucleation score of -0.984 ± 1.4. Substance HFSFLL has an amyloid nucleation score of 1.37 ± 0.084. For HGDDCGDRDCGGRKECTGIA, the amyloid nucleation score was “inactive”. In the case of HGLFTFVGCHCLCRN, the amyloid nucleation score is reported as 0.939 ± 0.16. With HGSSCTRWAWALMNILDCVM the amyloid nucleation score was “inactive”. In the case of HGVWRLSYVVVGCPLTEVSP, the amyloid nucleation score is reported as “inactive”. With HICIQDCVD the amyloid nucleation score was “inactive”. With HINTWRLFRVGIPYVCVSDG the amyloid nucleation score was “inactive”. With HIRSSDHGGSLTGLTCRDTD the amyloid nucleation score was “inactive”. In the case of HISWFIFLCGGSFDSVMLAN, the amyloid nucleation score is reported as “inactive”. With HITNGRGWRHGRVWSSIWFF the amyloid nucleation score was “inactive”. In the case of HKDLRYGWSSS, the amyloid nucleation score is reported as “inactive”. For HKDTSDFISHVRVSPWPNKG, the amyloid nucleation score was “inactive”. Substance HKGFVSKIGNN has an amyloid nucleation score of -0.4 ± 0.9. With HKIWVVQQWGRRRQQ the amyloid nucleation score was “inactive”. In the case of HKPFNFYLGLPLTVV, the amyloid nucleation score is reported as “inactive”. With HKSIYF the amyloid nucleation score was “inactive”. In the case of HLGFVEYAAKYTMVVCGRAV, the amyloid nucleation score is reported as “inactive”. With HLGYPVVLVLLLPSDDSGHL the amyloid nucleation score was “inactive”. In the case of HLLRCYMFIVDEVCWSVVAR, the amyloid nucleation score is reported as “inactive”. In the case of HLMTQMATRRL, the amyloid nucleation score is reported as “inactive”. In the case of HLRFFLRVVGRTFIFCHS, the amyloid nucleation score is reported as “inactive”. With HLSRCYCYNDVSLARNFNDR the amyloid nucleation score was “inactive”. For HLVAMMLCQLDTLTFYRYGG, the amyloid nucleation score was “inactive”. For HLYDPVFTKVAPRSSGGYGQ, the amyloid nucleation score was “inactive”. For HMFSGVG, the amyloid nucleation score was “inactive”. HNFLIMWKSVVVLAVAISAK showed an amyloid nucleation score of 0.627 ± 0.18. For HNGARG, the amyloid nucleation score was “inactive”. In the case of HNGDRVDY, the amyloid nucleation score is reported as “inactive”. For HNLLEETLTWCNIGRGWDD, the amyloid nucleation score was “inactive”. In the case of HPSSNLMHLM, the amyloid nucleation score is reported as “inactive”. Substance HQARIYVSYYPVLSFDPFRK has an amyloid nucleation score of 2.06 ± 0.074. For HQTRIMPGLLGKRAFIRVRL, the amyloid nucleation score was “inactive”. In the case of HRDCRKFCSMNTHANMNMLS, the amyloid nucleation score is reported as “inactive”. In the case of HRGIVGCLAYMHMNRIVATT, the amyloid nucleation score is reported as “inactive”. With HRTTWLIWPLS the amyloid nucleation score was “inactive”. For HSCCDEWRDNGEIGNSSNRE, the amyloid nucleation score was “inactive”. For HSIGPVIKRCCVIFSLR, the amyloid nucleation score was “inactive”. Work on HSLFIFNFGCL yielded an amyloid nucleation score of 2.96 ± 0.054. In the case of HSLTATINTGKLYKSVSKHG, the amyloid nucleation score is reported as “inactive”. In the case of HSMQCNT, the amyloid nucleation score is reported as “inactive”. HSRRYILNVP showed an amyloid nucleation score of 0.935 ± 0.085. With HSSSVTCI the amyloid nucleation score was “inactive”. For HSVSLNYLGIR, the amyloid nucleation score was “inactive”. For HSWWLWNGFVGLAPLVDNFF, the amyloid nucleation score was “inactive”. Work on HSYTWICVARLPHWFWTQCL yielded an amyloid nucleation score of 1.71 ± 0.075. For HTFDDSTCSYTWVYFHIWCI, the amyloid nucleation score was “inactive”. Work on HTYLLLRDNLLFTVIHTPRN yielded an amyloid nucleation score of 2.02 ± 0.075. In the case of HVARFMLNRYLLFGEPYMLK, the amyloid nucleation score is reported as “inactive”. In the case of HVCWVWMCEVFKAAIPSVTD, the amyloid nucleation score is reported as “inactive”. With HVIKNFSADISIDDFFYLGM the amyloid nucleation score was “inactive”. For HVILICLSFYTKFICPIPEV, the amyloid nucleation score was “inactive”. With HVSSKASLLPMYRY the amyloid nucleation score was 0.237 ± 0.75. With HVTPRKN the amyloid nucleation score was “inactive”. With HWCRQNNSIFMRS the amyloid nucleation score was “inactive”. For HWGRDFLGFVTAFDGCVSQL, the amyloid nucleation score was “inactive”. HWLFVVKMMKS showed an amyloid nucleation score of -0.093 ± 0.41. With HYLWCVYII the amyloid nucleation score was “inactive”. For HYNVPL, the amyloid nucleation score was “inactive”. In the case of HYRVLPPAVVRRRVMLL, the amyloid nucleation score is reported as “inactive”. In the case of HYVPVASDVRGMIYFRSFEW, the amyloid nucleation score is reported as “inactive”. For HYWYE, the amyloid nucleation score was “inactive”. With IACFMI the amyloid nucleation score was “inactive”. In the case of IAGTIRVFYVFKAYADSPTW, the amyloid nucleation score is reported as “inactive”. In the case of IAHPSHGS, the amyloid nucleation score is reported as 0.432 ± 0.22. With IASEFVRGKHSHYM the amyloid nucleation score was “inactive”. In the case of IASSSWHVMIWYSPRSCVFS, the amyloid nucleation score is reported as “inactive”. With IAVVTSNWVADLSPGNHTCM the amyloid nucleation score was -0.49 ± 0.96. With ICDLSREYSNHGFVLMDEIR the amyloid nucleation score was “inactive”. In the case of ICHFTLM, the amyloid nucleation score is reported as “inactive”.
